Blank lines part the entries; values can stand above or below the binder they belong to.
Tests used:
human CD123 [1] = target: T1, human CD123 (human, UniProt P26951 19-378); assay: cell-based or functional assay
human CD123 [2] = target: T1, human CD123; assay: cell-based or functional assay; remark: listed apart in the source
human CD123 [3] = target: T1, human CD123; assay: cell-based or functional assay; remark: listed apart in the source
cynomolgus CD123 = target: T2, cynomolgus CD123 (cynomolgus); assay: saturation binding of AlexaFluor-488 labeled mAb, flow cytometry on HEK293F cells expressing cyno CD123; apparent Kd
T2 construct: whole, on cells; Expressed on transfected HEK-293F cells; also called cyno CD123
Procedure: (§1) One hundred thousand CD123-positive cells (HEK-293F cells transfected to express human or cynomologus CD123) were transferred to 96-well plates. […] Cells were pelleted by centrifugation, washed 3 times with a PBS+1% BSA solution, and resuspended in 125 μL of PBS+1% BSA. Fluorescence was analyzed using a flow cytometer, and the percent of saturated fluorescent signal was used to determine percent bound and to subsequently calculate apparent Kd.

human CD123 [4] = target: T1, human CD123; assay: saturation binding of AlexaFluor-488 labeled mAb, flow cytometry on HEK293F cells expressing human CD123; apparent Kd
Procedure: as §1

human CD123 [5] = target: T1, human CD123; assay: competition with 5 nM AlexaFluor-488 m7G3, flow cytometry on Molm-13 AML cells
Procedure: Cells were centrifuged, washed 3 times with PBS, and resuspended in 125 μL of a PBS+1% BSA solution. Fluorescence was analyzed using a flow cytometer, and the percent of saturated fluorescent signal was used to determine percent labeled 7G3 mAb bound. The EC50 was extrapolated by fitting the data to a sigmoidal dose-response curve with variable slope.

T1 sequence (P26951 19-378): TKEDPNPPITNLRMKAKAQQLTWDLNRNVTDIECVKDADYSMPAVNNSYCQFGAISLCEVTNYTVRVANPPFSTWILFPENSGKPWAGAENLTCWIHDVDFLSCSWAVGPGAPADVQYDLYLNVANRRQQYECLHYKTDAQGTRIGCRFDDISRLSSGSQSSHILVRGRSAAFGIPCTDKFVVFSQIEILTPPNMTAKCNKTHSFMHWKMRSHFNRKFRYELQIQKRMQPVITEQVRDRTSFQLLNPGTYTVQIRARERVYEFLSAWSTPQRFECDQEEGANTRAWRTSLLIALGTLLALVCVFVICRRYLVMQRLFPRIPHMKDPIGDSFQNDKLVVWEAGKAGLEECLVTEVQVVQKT

B1: h7G3EC-SGD-1910 (antibody, human IgG1, kappa, V domains shown)
VH: QVQLVQSGAEVKKPGASVKMSCKASGYTFTDYYMKWVKQAPGQGLEWIGDIIPSNGATFYNQKFKGKATLTVDRSISTAYMHLNRLRSDDTAVYYCTRSHLLRASWFAYWGQGTLVTVSS
VL: DFVMTQSPDSLAVSLGERATINCKSSQSLLNSGNQKNYLTWYLQKPGQPPKLLIYWASTRESGVPDRFSGSGSGTDFTLTISSLQAEDVAVYYCQNDYSYPYTFGQGTKLEIKR
modifications: SGD-1910 PBD drug-linker on the thiol of Cys 239 (EU index); average drug load about 2 per antibody
IC50, in vitro cytotoxicity (Annexin V/PI flow cytometry), primary AML sample FH016 (human CD123 [1]): 1.4 ng/mL | IC50, in vitro cytotoxicity (Annexin V/PI flow cytometry), primary AML sample FH018 (human CD123 [1]): 0.12 ng/mL | IC50, in vitro cytotoxicity (Annexin V/PI flow cytometry), primary AML sample FH019 (human CD123 [1]): > 2.5 ng/mL | IC50, in vitro cytotoxicity (Annexin V/PI flow cytometry), primary AML sample FH020 (human CD123 [1]): 2.5 ng/mL | IC50, in vitro cytotoxicity (Annexin V/PI flow cytometry), primary AML sample FH021 (human CD123 [1]): 1.6 ng/mL | IC50, in vitro cytotoxicity (Annexin V/PI flow cytometry), primary AML sample FH022 (human CD123 [1]): 0.56 ng/mL | IC50, in vitro cytotoxicity (Annexin V/PI flow cytometry), primary AML sample FH023 (human CD123 [1]): 0.06 ng/mL | IC50, in vitro cytotoxicity (Annexin V/PI flow cytometry), primary AML sample FH024 (human CD123 [1]): 2 ng/mL | IC50, in vitro cytotoxicity (Annexin V/PI flow cytometry), primary AML sample FH025 (human CD123 [1]): 6.5 ng/mL | IC50, in vitro cytotoxicity (Annexin V/PI flow cytometry), primary AML sample FH026 (human CD123 [1]): 0.22 ng/mL | IC50, in vitro cytotoxicity (Annexin V/PI flow cytometry), primary AML sample FH027 (human CD123 [1]): > 2.5 ng/mL | IC50, in vitro cytotoxicity (Annexin V/PI flow cytometry), primary AML sample FH028 (human CD123 [1]): 2 ng/mL | IC50, in vitro cytotoxicity (Annexin V/PI flow cytometry), primary AML sample FH029 (human CD123 [1]): 0.46 ng/mL | IC50, in vitro cytotoxicity (Annexin V/PI flow cytometry), primary AML sample FH034 (human CD123 [1]): 0.22 ng/mL | IC50, in vitro cytotoxicity (Annexin V/PI flow cytometry), primary AML sample FH036 (human CD123 [1]): 0.16 ng/mL | IC50, in vitro cytotoxicity (Annexin V/PI flow cytometry), primary AML sample FH037 (human CD123 [1]): 0.68 ng/mL | IC50, in vitro cytotoxicity (Annexin V/PI flow cytometry), primary AML sample FH038 (human CD123 [1]): 0.18 ng/mL | mean IC50, in vitro cytotoxicity, responsive CD123-positive AML cell lines (human CD123 [2]): 7 ng/mL | mean IC50, in vitro cytotoxicity, responsive primary AML samples (human CD123 [2]): 1 ng/mL | IC50, in vitro cytotoxicity (CelltiterGlo, 96 h), GDM-1 AML cells (human CD123 [3]): 3.5 ng/mL | IC50, in vitro cytotoxicity (CelltiterGlo, 96 h), HNT-34 AML cells (human CD123 [3]): 0.35 ng/mL | IC50, in vitro cytotoxicity (CelltiterGlo, 96 h), KG1-INV AML cells (human CD123 [3]): 0.6 ng/mL | IC50, in vitro cytotoxicity (CelltiterGlo, 96 h), KG-1 AML cells (human CD123 [3]): 0.8 ng/mL | IC50, in vitro cytotoxicity (CelltiterGlo, 96 h), Kasumi-1 AML cells (human CD123 [3]): 1 ng/mL | IC50, in vitro cytotoxicity (CelltiterGlo, 96 h), MV4-11 AML cells (human CD123 [3]): 0.02 ng/mL | IC50, in vitro cytotoxicity (CelltiterGlo, 96 h), Molm-13 AML cells (human CD123 [3]): 0.08 ng/mL | IC50, in vitro cytotoxicity (CelltiterGlo, 96 h), NOMO-1 AML cells (human CD123 [3]): 38 ng/mL | IC50, in vitro cytotoxicity (CelltiterGlo, 96 h), SKM-1 AML cells (human CD123 [3]): 2.5 ng/mL | IC50, in vitro cytotoxicity (CelltiterGlo, 96 h), TF1a AML cells (human CD123 [3]): > 1000 ng/mL | IC50, in vitro cytotoxicity (CelltiterGlo, 96 h), THP-1 AML cells (human CD123 [3]): 24 ng/mL

Kd (cynomolgus CD123): 6.6 nM | Kd (human CD123 [4]): 2.7 nM
B2: h7G3EC (antibody, human IgG1, kappa, V domains shown)
VH: QVQLVQSGAEVKKPGASVKMSCKASGYTFTDYYMKWVKQAPGQGLEWIGDIIPSNGATFYNQKFKGKATLTVDRSISTAYMHLNRLRSDDTAVYYCTRSHLLRASWFAYWGQGTLVTVSS
VL: DFVMTQSPDSLAVSLGERATINCKSSQSLLNSGNQKNYLTWYLQKPGQPPKLLIYWASTRESGVPDRFSGSGSGTDFTLTISSLQAEDVAVYYCQNDYSYPYTFGQGTKLEIKR
notes: EC means cysteine at position 239 (EU index) of the IgG1 heavy chain; Unconjugated antibody; also called humanized 7G3 with S239C

Kd (cynomolgus CD123): 5.3 nM | Kd (human CD123 [4]): 2.7 nM
B3: h7G3, G1 (antibody, V domains shown)
VH: QVQLVQSGAEVKKPGASVKMSCKASGYTFTDYYMKWVKQAPGQGLEWIGDIIPSNGATFYNQKFKGKATLTVDRSISTAYMHLNRLRSDDTAVYYCTRSHLLRASWFAYWGQGTLVTVSS
VL: DFVMTQSPDSLAVSLGERATINCKSSQSLLNSGNQKNYLTWYLQKPGQPPKLLIYWASTRESGVPDRFSGSGSGTDFTLTISSLQAEDVAVYYCQNDYSYPYTFGQGTKLEIKR
notes: also called humanized 7G3, IgG1

EC50 (human CD123 [5]): 2.6 nM
B4: HCLA (antibody, V domains shown)
VH: QVQLVQSGAEVKKPGASVKMSCKASGYTFTDYYMKWVKQAPGQGLEWIGDIIPSNGATFYNQKFKGKATLTVDRSISTAYMHLNRLRSDDTAVYYCTRSHLLRASWFAYWGQGTLVTVSS
VL: DFVMTQSPDSLAVSLGERATINCKSSQSLLNSGNQKNYLTWYLQKPGQPPKLLIYWASTRESGVPDRFSGSGSGTDFTLTISSLQAEDVAVYYCQNDYSYPYTFGQGTKLEIKR
notes: also called lead humanized 7G3 antibody; vHC/vLA

Kd (cynomolgus CD123): 4.6 nM | Kd (human CD123 [4]): 2.7 nM | EC50 (human CD123 [5]): 4.3 nM
B5: murine 7G3 antibody (antibody, V domains shown)
VH: EVQLQQSGPELVKPGASVKMSCKASGYTFTDYYMKWVKQSHGKSLEWIGDIIPSNGATFYNQKFKGKATLTVDRSSSTAYMHLNSLTSEDSAVYYCTRSHLLRASWFAYWGQGTLVTVSA
VL: DFVMTQSPSSLTVTAGEKVTMSCKSSQSLLNSGNQKNYLTWYLQKPGQPPKLLIYWASTRESGVPDRFTGSGSGTDFTLTISSVQAEDLAVYYCQNDYSYPYTFGGGTKLEIKR
notes: Murine monoclonal antibody; also called m7G3

Kd (cynomolgus CD123): 4.7 nM | Kd (human CD123 [4]): 2.7 nM | EC50 (human CD123 [5]): 2 nM
B6: Chimeric 7G3 (antibody, V domains shown)
VH: EVQLQQSGPELVKPGASVKMSCKASGYTFTDYYMKWVKQSHGKSLEWIGDIIPSNGATFYNQKFKGKATLTVDRSSSTAYMHLNSLTSEDSAVYYCTRSHLLRASWFAYWGQGTLVTVSA
VL: DFVMTQSPSSLTVTAGEKVTMSCKSSQSLLNSGNQKNYLTWYLQKPGQPPKLLIYWASTRESGVPDRFTGSGSGTDFTLTISSVQAEDLAVYYCQNDYSYPYTFGGGTKLEIKR
